Experimental findings from publication PMC10553838, “Functional and structural insights into the multi-step activation and catalytic mechanism of bacterial ExoY nucleotidyl cyclase toxins bound to actin-profilin” (PLOS Pathogens, 2023) are described below.

Assay [1] deals with Alexa-488-labelled G-actin-ATP (rabbit) (UniProt P68135). Kind of assay: AUC.
In assay [2] the target is α-actin from rabbit skeletal muscle, monomeric (G-actin) (rabbit) (UniProt P68135). Kind of assay: pyrene-actin seeded elongation rates with profilin, fitted with G-actin sequestration by Vn-ExoY.
The target is the same in assay [3]. Kind of assay: pyrene-actin seeded elongation rates fitted to a G-actin sequestration model; initial barbed-end (spectrin-actin seeds) and pointed-end (gelsolin-actin seeds) growth rates, 1.5 μM G-actin-ATP-Mg, increasing Vn-ExoY^DM; 28 mM KCl, 2 mM MgCl2, 10 mM Tris-HCl pH 7.5, 2 mM ATP, 1 mM DTT; 25°C; KD from the fit of Eq 1 and 2.

For the substance “Trx-Vn-ExoY (Vn-ExoY fused to Thioredoxin) (domain or fragment)”, in assay [1], the equilibrium dissociation constant (Kd) was found to be 11.7 µM and the stoichiometry N stood at 1. For the substance “Vn-ExoY^3412-3873 (wild type) (domain or fragment)”, the equilibrium dissociation constant (Kd) in assay [2] is 12 to 14 µM. “Vn-ExoY^DM (Vn-ExoY^412-873 K528M/K535I, inactive double mutant) (domain or fragment)”: in assay [3], the Kd turned out to be 21 µM and the stoichiometry N came to 1.
